# Patent US20210292393A1 (published 2021)
# Where a chain is given by its changes, count along the chain named.
# B1: antibody 305 (antibody, V domains shown)
# VH: QVQLVESGGGVVQPGRSLRLSCAASGFTFSSYAMHWVRQAPGKGLEWVAVISYDGSNKYYADSVKGRFTISRDNSKNTLYLQMNSLRAEDTAVYYCAREQTSYDYVWGTLGAYYYYGMDVWGQGTTVTVSS
# VL: SSELTQDPAVSVALGQTVRITCQGDSLRSYYASWYQQKPGQAPVLVIYGKNNRPSGIPDRFSGSSSGNTASLTITGAQAEDEADYYCNSRDSSGNHLVFGGGTKLTVL
# B2: antibody 330 (antibody, V domains shown)
# VH: QVQLVESGGGVVQPGRSLRLSCAASGFTFSSYAMHWVRQAPGKGLEWVAVISYDGSNKYYADSVKGRFTISRDNSKNTLYLQMNSLRAEDTAVYYCARDFQYYDFWSGYLTVSSPTSYYGMDVWGQGTTVTVSS
# VL: NFMLTQPHSVSESPGKTVTISCTGSSGSIASNYVQWYQQRPGSAPTTVIYEDNQRPSGVPDRFSGSIDSSSNSASLTISGLKTEDEADYYCQSYDSSNVVFGGGTKLTVL
# B3: antibody 258 (antibody, V domains shown)
# VH: QVQLQESGPGLVKPSETLSLTCTVSGGSISSYYWSWIRQPAGKGLEWIGRIYTSGSTNYNPSLKSRVTMSVDTSKNQFSLKLSSVTAADTAVYYCAAGYGSIDYWGQGTLVTVSS
# VL: not shown
# B4: antibody 311 (antibody, V domains shown)
# VH: QVQLQESGPGLVKPSETLSLTCTVSGYSISSGYYWGWIRQPPGKGLEWIGSIYHSGSTYYNPSLKSRVTISVDTSKNQFSLKLSSVTAADTAVYYCAREETLGSSWYESYIDYWGQGTLVTVSS
# VL: SYVLTQPPSVSVAPGKTARITCGGNNIGSKSVHWYQQKPGQAPVLVIYYDSDRPSGIPERFSGSNSGNTATLTISRVEAGDEADYYCQVWDSSSDHPRVFGGGTKLTVL
# B5: antibody 318 (antibody, V domains shown)
# VH: QVQLVESGGGVVPPGRSLSLPCAASGFSFSAYAMHWLRQAPGKGLEWVAVISYDGTVKYVADSVRGRFTISRDNSNNTLYLQMTSLRSDDTAVYYCARDLGALAAAPTVYFVHWGQGTLVTVSS
# VL: SYVLTQPPSVSVAPGKTATITCAGEDIGRKSVHWYQQKPGQAPVLVIFYYSDRPSGIPDRFSGSVSGNTATLTIGRVEAGDEADYFCQVWDRTTNHVIFGGGTKVTVL
# B6: antibody 370 (antibody, V domains shown)
# VH: B5 VH with S28T
# VL: B5 VL
# B7: antibody 302 (antibody, V domains shown)
# VH: QVQLVQSGAEVRKPGASVKVSCKVSGYTLSELSMHWVRQAPGKGLEWMGGFDPEDGERMYAQKFQGRVTMTEDTSTDTAYMELSSLRSEDTAIYYCTTDLSYLWSGKLEPDYWYFALWGRGTLVTVSS
# VL: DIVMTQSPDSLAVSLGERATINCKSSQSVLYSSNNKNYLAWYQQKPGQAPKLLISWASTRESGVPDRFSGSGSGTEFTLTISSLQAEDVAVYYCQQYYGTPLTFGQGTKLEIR
# B8: antibody 297 (antibody, V domains shown)
# VH: QVQLVESGGGVVQPGRSLRLSCAASGFTFSSYAMHWVRQAPGKGLEWVAVISYDGSNKYYADSVKGRFTISRDNSKNTLYLQMNSLRAEDTAVYYCARSFRGGYYYGMDVWGQGTTVTVSS
# VL: DIQLTQSPSFLSASVGDRVTITCRASQGISSYLAWYQQKPGKAPKLLIYAASTLQSGVPSRFSGSGSGTEFTLTISSLQPEDFATYYCQQLNSYPLFTFGPGTKVDIK
# B9: antibody 307 (antibody, V domains shown)
# VH: QVQLVESGGGVVQPGRSLRLSCAASGFTFSSYGMHWVRQAPGKGLEWVAVIWYDGSNKYYADSVKGRFTISRDNSKNTLYLQMNSLRAEDTAVYYCAKGYTWDYYYYGMDVWGQGTTVTVSS
# VL: not shown
# B10: antibody 278 (antibody, V domains shown)
# VH: QVQLVQSGAEVKKPGASVKVSCKASGYTFTSYYMHWVRQAPGQGLEWMGIINPSGGSTSYAQKFQGRVTMTRDTSTSTVYMELSSLRSEDTAVYYCARDHSNADPYYDFWSGYYTRTYYYGMDVWGQGTTVTVSS
# VL: not shown
# B11: antibody 277 (antibody, V domains shown)
# VH: QVQLVESGGGVVQPGRSLRLSCAASGFTFSSYAMHWVRQAPGKGLEWVAVISYDGSNTYYADSVKGRFTISRDNSKNTLYLQMNSLRAEDTAVYYCARPYSGSYFNWFDPWGQGTLVTVSS
# VL: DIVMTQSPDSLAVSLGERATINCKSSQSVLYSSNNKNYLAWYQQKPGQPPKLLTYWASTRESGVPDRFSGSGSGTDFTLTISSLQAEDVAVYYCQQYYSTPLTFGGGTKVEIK
# B12: antibody 291 (antibody, V domains shown)
# VH: B8 VH with S99A, F100S, R101G, G103S, Y105F, Y106G
# VL: QSALTQPASVSGSPGQSITISCTGTSSDVGGYNYVSWYQQHPGKAPKLMIYEVSNRPSGVSNRFSGSKSGNTASLTISGLQAEDEADYYCSSYTSSSTLYVFGTGTKVTVL
# B13: antibody 313 (antibody, V domains shown)
# VH: B11 VH with T58K, P99G, Y100L, S101G, F105Y, N106S, W107L, P110Y
# VL: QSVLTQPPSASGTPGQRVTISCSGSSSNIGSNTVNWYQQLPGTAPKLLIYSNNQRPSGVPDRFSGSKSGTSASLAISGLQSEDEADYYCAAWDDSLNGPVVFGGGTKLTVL
# B14: antibody 310 (antibody, V domains shown)
# VH: EVQLVESGGGLVQPGGSLRLSCAASGFTFSSYWMSWVRQAPGKGLEWVANIKQDGSEKYYVDSVKGRFTISRDNAKNSLYLQMNSLRAEDTAVYYCARVGSSSWYFDYWGQGTLVTVSS
# VL: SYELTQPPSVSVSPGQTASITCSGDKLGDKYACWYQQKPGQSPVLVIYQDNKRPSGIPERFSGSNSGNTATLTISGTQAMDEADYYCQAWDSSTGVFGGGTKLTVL
# B15: antibody 298 (antibody, V domains shown)
# VH: EVQLVESGGGLVQPGGSLRLSCAASGFTVSSNYMSWVRQAPGKGLEWVSVIYSGGSTYYADSVKGRFTISRDNSKNTLYLQMNSLRAEDTAVYYCAREEGEWEKDYYGMDVWGQGTTVTVSS
# VL: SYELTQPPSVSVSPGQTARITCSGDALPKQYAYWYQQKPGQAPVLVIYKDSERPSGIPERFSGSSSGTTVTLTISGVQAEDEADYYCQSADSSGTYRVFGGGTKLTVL
# B16: antibody 308 (antibody, V domains shown)
# VH: QLQLQESGPGLVKPSETLSLTCSVSGGSISSSSYHWGWIRQPPGKGLEWIGSIYYSGSTYYNPSLKSRVTISVDTSKNQFSLKLRSVTAADTAVYYCAGLRVVITFGGVIPKGGAFDIWGQGTMVTVSS
# VL: QSALTQPASVSGSPGQSITISCTGTSSDVGGYNYVSWYQQHPGKAPKLMIYDVSNRPSGVSNRFSGSKSGNTASLTISGLQAEDEADYYCSSYTSSSTVVFGGGTKLTVL
# B17: antibody 261 (antibody, V domains shown)
# VH: QVQLVESGGGVVQPGRSLRLSCAASGFTFSSYAMHWVRQAPGKGLEWVAVISYDGSNKYYADSVKGRFTISRDNSKNTLYLQMNSLRAEDTAVYYCARDEAYYDILTGYINAPKNYYYYGMDVWGQGTTVTVSS
# VL: DIQMTQSPSSLSASVGDRVTITCRASQGIRNDLGWYQQKPGKAPKRLIYAASSLQSGVPSRFSGSGSGTEFTLTISSLQPEDFATYYCLQHNSYPFTFGPGTKVDIK
# Molecular target: SARS-CoV-2 spike (S) protein (SARS-CoV-2, UniProt P0DTC2 14-1208)
Binder,Kd [nM],koff [s⁻¹],kon [M⁻¹ s⁻¹]
B1,13.8,0.001,72600
B2,9.54,0.00073,76500
B3,0.996,8.36e-05,84000
B4,19.1,0.000407,21300
B5,11.1,0.0017,152000
B6,5.55,0.000986,178000
B7,0.726,7.63e-05,105000
B8,1.6,0.000127,79800
B9,17,0.00171,
B10,4.78,0.000862,201000
B11,0.204,6.24e-05,305000
B12,0.117,5.43e-05,464000
B13,0.0975,4.89e-05,502000
B14,0.532,6.43e-05,121000
B15,0.0225,1.34e-05,597000
B16,0.495,6.89e-05,139000
B17,5.37,0.000695,129000
